Measured values: patent US20160200782A1

Tests used:
Test in all cases: cell-based or functional assay
CHK1(h) (human) = CHK1(h) (human) (UniProt O14757)
CHK2(h) (human) = CHK2(h) (human) (UniProt O96017)
ULK2(h) (human) = ULK2(h) (human) (UniProt Q8IYT8)
PhKγ2(h) (human) = PhKγ2(h) (human) (UniProt P15735)
c-RAF(h) (human) = c-RAF(h) (human) (UniProt P04049)
PRAK(h) (human) = PRAK(h) (human) (UniProt Q8IW41)
Ros(h) (human) = Ros(h) (human) (UniProt P08922)
ALK4(h) (human) = ALK4(h) (human) (UniProt P36896)
TSSK2(h) (human) = TSSK2(h) (human) (UniProt Q96PF2)
IR(h), activated (human) = IR(h), activated (human) (UniProt P06213)
MKK6(h) (human) = MKK6(h) (human) (UniProt P52564)
Txk(h) (human) = Txk(h) (human) (UniProt P42681)
Met(Y1248C)(h) (human) = Met(Y1248C)(h) (human) (UniProt P08581)
Pim-1(h) (human) = Pim-1(h) (human) (UniProt P11309)
PKG1α(h) (human) = PKG1α(h) (human) (UniProt Q13976)
SAPK2a(h) (human) = SAPK2a(h) (human) (UniProt Q16539)
CDK5/p25(h) (human) = CDK5/p25(h) (human) (UniProt Q00535)
PTK5(h) (human) = PTK5(h) (human) (UniProt P42685)
MuSK(h) (human) = MuSK(h) (human) (UniProt O15146)
Ab1(h) (human) = Ab1(h) (human) (UniProt P00519)
EGFR(L861Q)(h) (human) = EGFR(L861Q)(h) (human) (UniProt P00533)
Lyn(h) (human) = Lyn(h) (human) (UniProt P07948)
SGK3(h) (human) = SGK3(h) (human) (UniProt Q96BR1)
Rsk4(h) (human) = Rsk4(h) (human) (UniProt Q9UK32)
NEK2(h) (human) = NEK2(h) (human) (UniProt P51955)
Ab1(M351T)(h) (human) = Ab1(M351T)(h) (human) (UniProt P00519)
NEK3(h) (human) = NEK3(h) (human) (UniProt P51956)
EphA8(h) (human) = EphA8(h) (human) (UniProt P29322)
p70S6K(h) (human) = p70S6K(h) (human) (UniProt P23443)
Fer(h) (human) = Fer(h) (human) (UniProt P16591)
LIMK1(h) (human) = LIMK1(h) (human) (UniProt P53667)
Src(T341M)(h) (human) = Src(T341M)(h) (human) (UniProt P12931)
MAPKAP-K3(h) (human) = MAPKAP-K3(h) (human) (UniProt Q16644)
EphB3(h) (human) = EphB3(h) (human) (UniProt P54753)
Flt3(h) (human) = Flt3(h) (human) (UniProt P36888)
WNK3(h) (human) = WNK3(h) (human) (UniProt Q9BYP7)
HIPK1(h) (human) = HIPK1(h) (human) (UniProt Q86Z02)
MARK1(h) (human) = MARK1(h) (human) (UniProt Q9P0L2)
ZIPK(h) (human) = ZIPK(h) (human) (UniProt O43293)
Snk(h) (human) = Snk(h) (human) (UniProt Q9NYY3)
GRK6(h) (human) = GRK6(h) (human) (UniProt P43250)
IRAK4(h) (human) = IRAK4(h) (human) (UniProt Q9NWZ3)
MAPK2(h) (human) = MAPK2(h) (human) (UniProt P28482)
NEK7(h) (human) = NEK7(h) (human) (UniProt Q8TDX7)
cKit(D816V)(h) (human) = cKit(D816V)(h) (human) (UniProt P10721)
TBK1(h) (human) = TBK1(h) (human) (UniProt Q9UHD2)
Tie2(h) (human) = Tie2(h) (human) (UniProt Q02763)
MELK(h) (human) = MELK(h) (human) (UniProt Q14680)
STK33(h) (human) = STK33(h) (human) (UniProt Q9BYT3)
Aurora-B(h) (human) = Aurora-B(h) (human) (UniProt Q96GD4)
DRAK1(h) (human) = DRAK1(h) (human) (UniProt Q9UEE5)
Lck(h) (human) = Lck(h) (human) (UniProt P06239)
DYRK2(h) (human) = DYRK2(h) (human) (UniProt Q92630)
CSK(h) (human) = CSK(h) (human) (UniProt P41240)
MEK1(h) (human) = MEK1(h) (human) (UniProt Q02750)
eEF-2K(h) (human) = eEF-2K(h) (human) (UniProt O00418)

Sequence of Tie2(h) (human) (Q02763 771-1124 limits assumed): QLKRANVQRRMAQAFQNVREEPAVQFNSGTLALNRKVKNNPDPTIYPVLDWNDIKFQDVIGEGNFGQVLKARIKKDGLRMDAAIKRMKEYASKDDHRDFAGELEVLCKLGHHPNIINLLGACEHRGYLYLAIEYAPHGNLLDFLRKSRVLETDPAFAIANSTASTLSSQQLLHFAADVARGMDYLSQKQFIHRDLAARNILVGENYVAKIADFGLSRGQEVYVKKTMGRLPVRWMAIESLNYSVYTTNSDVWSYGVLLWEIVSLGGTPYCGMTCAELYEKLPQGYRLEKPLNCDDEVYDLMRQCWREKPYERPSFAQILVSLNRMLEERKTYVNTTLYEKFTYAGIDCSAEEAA
Sequence of Snk(h) (human) (Q9NYY3 whole entry): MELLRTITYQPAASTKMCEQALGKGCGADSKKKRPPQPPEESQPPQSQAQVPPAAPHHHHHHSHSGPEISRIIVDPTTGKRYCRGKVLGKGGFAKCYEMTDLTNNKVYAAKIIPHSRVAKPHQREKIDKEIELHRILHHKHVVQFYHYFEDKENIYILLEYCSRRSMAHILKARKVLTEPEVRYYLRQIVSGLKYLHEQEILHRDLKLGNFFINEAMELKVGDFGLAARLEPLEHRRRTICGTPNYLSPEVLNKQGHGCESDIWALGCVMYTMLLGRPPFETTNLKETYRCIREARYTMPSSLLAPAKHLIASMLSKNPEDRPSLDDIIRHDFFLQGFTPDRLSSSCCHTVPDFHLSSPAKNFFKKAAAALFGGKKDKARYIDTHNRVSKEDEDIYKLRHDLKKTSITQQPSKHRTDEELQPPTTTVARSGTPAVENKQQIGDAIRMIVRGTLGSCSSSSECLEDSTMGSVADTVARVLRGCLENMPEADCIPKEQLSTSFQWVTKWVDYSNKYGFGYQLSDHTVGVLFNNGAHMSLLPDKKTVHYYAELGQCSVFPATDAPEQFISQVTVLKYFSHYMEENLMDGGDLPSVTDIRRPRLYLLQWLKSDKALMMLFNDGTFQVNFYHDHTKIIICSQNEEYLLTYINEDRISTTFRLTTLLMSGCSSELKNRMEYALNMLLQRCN
Sequence of Ab1(h) (human) (P00519 27-1130 limits assumed): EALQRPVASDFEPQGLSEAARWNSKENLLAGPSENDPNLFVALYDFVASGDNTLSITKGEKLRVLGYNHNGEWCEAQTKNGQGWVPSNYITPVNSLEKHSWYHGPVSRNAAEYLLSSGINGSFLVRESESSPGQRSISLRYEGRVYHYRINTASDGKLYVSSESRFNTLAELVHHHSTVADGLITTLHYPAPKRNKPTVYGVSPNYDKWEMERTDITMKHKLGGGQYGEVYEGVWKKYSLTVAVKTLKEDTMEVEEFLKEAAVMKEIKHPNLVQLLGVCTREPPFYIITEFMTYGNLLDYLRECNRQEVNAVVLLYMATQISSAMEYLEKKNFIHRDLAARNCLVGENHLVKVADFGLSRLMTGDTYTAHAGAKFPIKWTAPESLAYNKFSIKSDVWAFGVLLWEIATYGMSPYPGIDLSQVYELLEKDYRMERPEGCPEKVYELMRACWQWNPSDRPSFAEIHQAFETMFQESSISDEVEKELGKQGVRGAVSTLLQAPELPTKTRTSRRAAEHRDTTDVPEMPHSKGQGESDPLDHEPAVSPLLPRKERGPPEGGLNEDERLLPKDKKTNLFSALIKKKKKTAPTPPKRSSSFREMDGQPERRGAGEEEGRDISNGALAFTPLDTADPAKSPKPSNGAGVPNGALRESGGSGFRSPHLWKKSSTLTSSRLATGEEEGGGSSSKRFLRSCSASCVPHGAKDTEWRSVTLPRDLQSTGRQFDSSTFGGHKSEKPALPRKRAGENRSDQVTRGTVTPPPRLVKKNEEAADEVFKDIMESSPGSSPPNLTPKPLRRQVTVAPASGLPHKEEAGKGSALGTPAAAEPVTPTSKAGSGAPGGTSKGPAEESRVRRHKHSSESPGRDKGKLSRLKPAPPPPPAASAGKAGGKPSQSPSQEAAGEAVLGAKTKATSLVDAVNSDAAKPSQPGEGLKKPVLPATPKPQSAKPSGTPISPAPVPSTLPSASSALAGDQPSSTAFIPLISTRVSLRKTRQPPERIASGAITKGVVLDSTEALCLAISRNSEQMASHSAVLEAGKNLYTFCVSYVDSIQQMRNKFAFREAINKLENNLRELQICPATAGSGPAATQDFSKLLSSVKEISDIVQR
Sequence of Lyn(h) (human) (P07948 whole entry): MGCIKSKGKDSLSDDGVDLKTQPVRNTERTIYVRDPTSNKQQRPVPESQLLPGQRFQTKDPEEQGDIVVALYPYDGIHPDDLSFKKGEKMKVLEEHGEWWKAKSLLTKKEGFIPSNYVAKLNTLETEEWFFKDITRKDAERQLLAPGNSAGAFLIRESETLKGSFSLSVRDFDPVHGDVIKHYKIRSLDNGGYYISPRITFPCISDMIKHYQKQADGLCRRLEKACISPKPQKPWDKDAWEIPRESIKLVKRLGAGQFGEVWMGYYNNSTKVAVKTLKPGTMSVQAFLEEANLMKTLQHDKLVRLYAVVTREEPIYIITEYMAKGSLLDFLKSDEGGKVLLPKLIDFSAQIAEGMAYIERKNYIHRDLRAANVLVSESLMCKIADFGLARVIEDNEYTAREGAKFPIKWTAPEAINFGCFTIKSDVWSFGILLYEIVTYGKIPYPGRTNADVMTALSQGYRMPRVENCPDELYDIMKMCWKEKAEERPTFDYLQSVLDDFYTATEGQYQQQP
Sequence of Aurora-B(h) (human) (Q96GD4 whole entry): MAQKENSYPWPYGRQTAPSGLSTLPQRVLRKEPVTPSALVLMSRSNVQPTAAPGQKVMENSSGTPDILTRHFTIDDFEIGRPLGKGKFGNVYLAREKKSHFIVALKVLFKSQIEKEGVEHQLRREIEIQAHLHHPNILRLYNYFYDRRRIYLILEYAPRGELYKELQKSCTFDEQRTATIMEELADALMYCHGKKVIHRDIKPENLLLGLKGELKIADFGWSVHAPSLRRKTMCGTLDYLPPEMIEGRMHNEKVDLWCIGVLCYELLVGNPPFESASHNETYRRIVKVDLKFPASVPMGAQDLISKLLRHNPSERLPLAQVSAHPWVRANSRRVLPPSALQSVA
Sequence of EphA8(h) (human) (P29322 564-1005 limits assumed): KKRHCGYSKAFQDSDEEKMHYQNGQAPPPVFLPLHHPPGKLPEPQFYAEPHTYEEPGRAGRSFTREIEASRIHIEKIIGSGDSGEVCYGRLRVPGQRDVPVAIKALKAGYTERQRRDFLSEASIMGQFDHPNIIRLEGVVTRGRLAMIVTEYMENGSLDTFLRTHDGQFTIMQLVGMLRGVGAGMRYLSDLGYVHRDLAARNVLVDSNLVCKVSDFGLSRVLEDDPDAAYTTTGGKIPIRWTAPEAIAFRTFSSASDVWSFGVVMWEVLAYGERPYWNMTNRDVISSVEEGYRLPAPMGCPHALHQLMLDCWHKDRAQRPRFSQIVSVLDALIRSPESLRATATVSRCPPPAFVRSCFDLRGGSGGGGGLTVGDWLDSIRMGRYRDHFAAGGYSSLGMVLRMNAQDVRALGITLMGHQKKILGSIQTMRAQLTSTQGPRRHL
Sequence of IRAK4(h) (human) (Q9NWZ3 whole entry): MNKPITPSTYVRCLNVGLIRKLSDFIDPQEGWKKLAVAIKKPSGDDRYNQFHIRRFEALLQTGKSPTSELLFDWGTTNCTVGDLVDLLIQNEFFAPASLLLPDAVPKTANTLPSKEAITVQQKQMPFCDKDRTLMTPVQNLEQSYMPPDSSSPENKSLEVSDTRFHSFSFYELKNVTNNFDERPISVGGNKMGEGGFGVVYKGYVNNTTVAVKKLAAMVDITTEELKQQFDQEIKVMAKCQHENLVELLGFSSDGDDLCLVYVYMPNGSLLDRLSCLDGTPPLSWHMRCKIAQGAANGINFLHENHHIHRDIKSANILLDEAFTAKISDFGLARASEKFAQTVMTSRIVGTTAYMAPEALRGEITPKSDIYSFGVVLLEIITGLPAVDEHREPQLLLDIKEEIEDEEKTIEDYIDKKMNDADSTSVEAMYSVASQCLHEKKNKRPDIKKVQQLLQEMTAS
Sequence of MARK1(h) (human) (Q9P0L2 whole entry): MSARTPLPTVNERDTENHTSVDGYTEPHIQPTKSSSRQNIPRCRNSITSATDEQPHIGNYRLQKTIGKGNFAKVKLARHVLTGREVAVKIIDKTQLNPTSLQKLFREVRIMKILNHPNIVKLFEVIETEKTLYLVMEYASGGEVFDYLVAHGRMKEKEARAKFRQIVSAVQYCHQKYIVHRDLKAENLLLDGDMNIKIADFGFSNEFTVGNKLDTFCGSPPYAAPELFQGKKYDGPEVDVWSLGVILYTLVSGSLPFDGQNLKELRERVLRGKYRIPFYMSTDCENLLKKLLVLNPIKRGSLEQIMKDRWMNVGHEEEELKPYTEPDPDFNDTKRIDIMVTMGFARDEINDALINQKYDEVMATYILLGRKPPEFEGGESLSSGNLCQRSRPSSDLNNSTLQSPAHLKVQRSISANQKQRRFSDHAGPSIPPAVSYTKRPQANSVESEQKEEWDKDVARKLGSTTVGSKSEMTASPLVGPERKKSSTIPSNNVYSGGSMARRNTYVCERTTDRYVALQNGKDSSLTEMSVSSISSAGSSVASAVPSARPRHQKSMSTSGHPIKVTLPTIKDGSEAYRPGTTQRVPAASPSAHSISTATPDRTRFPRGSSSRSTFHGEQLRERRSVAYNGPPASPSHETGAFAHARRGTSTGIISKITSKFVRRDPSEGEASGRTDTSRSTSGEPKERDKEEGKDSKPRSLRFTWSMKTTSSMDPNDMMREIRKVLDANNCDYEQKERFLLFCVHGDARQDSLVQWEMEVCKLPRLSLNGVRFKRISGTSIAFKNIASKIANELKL
Sequence of Fer(h) (human) (P16591 541-822 limits assumed): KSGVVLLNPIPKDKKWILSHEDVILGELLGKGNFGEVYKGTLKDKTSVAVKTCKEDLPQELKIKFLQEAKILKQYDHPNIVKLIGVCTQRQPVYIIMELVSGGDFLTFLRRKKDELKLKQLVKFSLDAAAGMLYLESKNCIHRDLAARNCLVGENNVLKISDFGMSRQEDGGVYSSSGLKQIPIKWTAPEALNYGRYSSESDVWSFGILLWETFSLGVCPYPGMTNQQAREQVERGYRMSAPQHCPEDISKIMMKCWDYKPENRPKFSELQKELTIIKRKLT
Sequence of Ab1(M351T)(h) (human) (P00519 27-1130 M351T limits assumed): as the sequence (P00519 27-1130 limits assumed) above, with M325T counted along it

MMI-0500 (peptide)
% activity (CHK1(h) (human)): 65%
% activity (CHK2(h) (human)): 13%
% activity (ULK2(h) (human)): 124%
% activity (PhKγ2(h) (human)): 16%
% activity (c-RAF(h) (human)): 19%
% activity (PRAK(h) (human)): 95%
% activity (Ros(h) (human)): 150%
% activity (ALK4(h) (human)): 81%
% activity (TSSK2(h) (human)): 92%
% activity (IR(h), activated (human)): 90%
% activity (MKK6(h) (human)): 18%
% activity (Txk(h) (human)): 10%
% activity (Met(Y1248C)(h) (human)): 73%
% activity (Pim-1(h) (human)): 0%
% activity (PKG1α(h) (human)): 25%
% activity (SAPK2a(h) (human)): 52%
% activity (CDK5/p25(h) (human)): 66%
% activity (PTK5(h) (human)): 96%
% activity (MuSK(h) (human)): 27%
% activity (Ab1(h) (human)): 16%
% activity (EGFR(L861Q)(h) (human)): 15%
% activity (Lyn(h) (human)): 31%
% activity (SGK3(h) (human)): -3%
% activity (Rsk4(h) (human)): 29%
% activity (NEK2(h) (human)): 0%
% activity (Ab1(M351T)(h) (human)): 61%
% activity (NEK3(h) (human)): 20%
% activity (EphA8(h) (human)): 337%
% activity (p70S6K(h) (human)): 3%
% activity (Fer(h) (human)): 196%
% activity (LIMK1(h) (human)): 87%
% activity (Src(T341M)(h) (human)): 59%
% activity (MAPKAP-K3(h) (human)): 9%
% activity (EphB3(h) (human)): 79%
% activity (Flt3(h) (human)): 17%
% activity (WNK3(h) (human)): 9%
% activity (HIPK1(h) (human)): 47%
% activity (MARK1(h) (human)): 110%
% activity (ZIPK(h) (human)): 1%
% activity (Snk(h) (human)): 122%
% activity (GRK6(h) (human)): 174%
% activity (IRAK4(h) (human)): 3%
% activity (MAPK2(h) (human)): 60%
% activity (NEK7(h) (human)): 89%
% activity (cKit(D816V)(h) (human)): 30%
% activity (TBK1(h) (human)): 16%
% activity (Tie2(h) (human)): 22%
% activity (MELK(h) (human)): 0%
% activity (STK33(h) (human)): 16%
% activity (Aurora-B(h) (human)): 5%
% activity (DRAK1(h) (human)): 8%
% activity (Lck(h) (human)): 359%
% activity (DYRK2(h) (human)): 127%
% activity (CSK(h) (human)): 2%
% activity (MEK1(h) (human)): 21%
% activity (eEF-2K(h) (human)): 43%

MMI-0100 (peptide)
% activity (CHK1(h) (human)): 97%
% activity (CHK2(h) (human)): 104%
% activity (ULK2(h) (human)): 123%
% activity (PhKγ2(h) (human)): 62%
% activity (c-RAF(h) (human)): 97%
% activity (PRAK(h) (human)): 159%
% activity (Ros(h) (human)): 107%
% activity (ALK4(h) (human)): 124%
% activity (TSSK2(h) (human)): 107%
% activity (IR(h), activated (human)): 127%
% activity (MKK6(h) (human)): 74%
% activity (Txk(h) (human)): 87%
% activity (Met(Y1248C)(h) (human)): 77%
% activity (Pim-1(h) (human)): 44%
% activity (PKG1α(h) (human)): 82%
% activity (SAPK2a(h) (human)): 110%
% activity (CDK5/p25(h) (human)): 114%
% activity (PTK5(h) (human)): 135%
% activity (MuSK(h) (human)): 85%
% activity (Ab1(h) (human)): 136%
% activity (EGFR(L861Q)(h) (human)): 53%
% activity (Lyn(h) (human)): 113%
% activity (SGK3(h) (human)): 95%
% activity (Rsk4(h) (human)): 99%
% activity (NEK2(h) (human)): 102%
% activity (Ab1(M351T)(h) (human)): 128%
% activity (NEK3(h) (human)): 100%
% activity (EphA8(h) (human)): 181%
% activity (p70S6K(h) (human)): 89%
% activity (Fer(h) (human)): 117%
% activity (LIMK1(h) (human)): 103%
% activity (Src(T341M)(h) (human)): 98%
% activity (MAPKAP-K3(h) (human)): 27%
% activity (EphB3(h) (human)): 109%
% activity (Flt3(h) (human)): 104%
% activity (WNK3(h) (human)): 100%
% activity (HIPK1(h) (human)): 94%
% activity (MARK1(h) (human)): 109%
% activity (ZIPK(h) (human)): 80%
% activity (Snk(h) (human)): 94%
% activity (GRK6(h) (human)): 131%
% activity (IRAK4(h) (human)): 100%
% activity (MAPK2(h) (human)): 98%
% activity (NEK7(h) (human)): 97%
% activity (cKit(D816V)(h) (human)): 117%
% activity (TBK1(h) (human)): 106%
% activity (Tie2(h) (human)): 28%
% activity (MELK(h) (human)): 74%
% activity (STK33(h) (human)): 99%
% activity (Aurora-B(h) (human)): 94%
% activity (DRAK1(h) (human)): 47%
% activity (Lck(h) (human)): 346%
% activity (DYRK2(h) (human)): 99%
% activity (CSK(h) (human)): 70%
% activity (MEK1(h) (human)): 86%
% activity (eEF-2K(h) (human)): 113%
